Assay results taken from patent publication US9770493B2 (DSM IP ASSETS B.V., priority 2008, dated 2017).
Read-outs that look alike come from different tables or passages of the source. Peptide text beside a SMILES is read from it.

What was measured:
[1] = system: trypsin/chymotrypsin mixture; assay: Lysozyme hydrolysis by a trypsin/chymotrypsin mixture (in vitro digestibility, DH); format: in vitro ADME, Porcine; conditions: pH start 7.2, 2 hours at 37 degrees C
Procedure: (§1) Both incubations were carried out under pH conditions that are prevalent in the stomach (pepsin) and duodenum (trypsin/chymotrypsin). […] To prevent major pH changes as the result of the ongoing protein hydrolysis, incubation was carried out in a Mc Ilvane buffer (0.2 M citric acid plus Na2HPO4).

[2] = molecular target: T1, microbial subtilisin (EC 3.4.21.62) (Bacillus licheniformis, UniProt P00780); assay: Susceptibility of lysozyme to subtilisin (Protex 6L) hydrolysis at elevated pH, DH; format: physicochemical
T1 construct: purchased Genencor (Leiden, The Netherlands) Protex 6L
T1 sequence (P00780 106-379): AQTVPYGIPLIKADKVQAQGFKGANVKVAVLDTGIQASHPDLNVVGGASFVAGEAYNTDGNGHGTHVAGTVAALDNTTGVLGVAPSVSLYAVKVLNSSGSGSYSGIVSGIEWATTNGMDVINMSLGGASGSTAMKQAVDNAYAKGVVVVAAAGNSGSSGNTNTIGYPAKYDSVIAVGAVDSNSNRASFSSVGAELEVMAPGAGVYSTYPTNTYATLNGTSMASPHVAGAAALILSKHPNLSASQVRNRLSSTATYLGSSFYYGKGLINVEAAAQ
Procedure: The Degree of Hydrolysis (DH) as obtained during incubation with the various proteolytic mixtures was monitored using a rapid OPA test (Nielsen, P. M.; Petersen, D.; Dambmann, C. Improved method for determining food protein degree of hydrolysis. Journal of Food Science 2001, 66, 642-646).
The incubation was carried out for 3 hours at 60 degrees C. with a constant adjustment of the pH using 1M NaOH. The incubations yielded slightly turbid solutions without any significant precipitates. After a heating step to inactivate the subtilisin activity, the DH values of the various incubations were measured according to the protocol described in the Materials & Methods section. […] The pH 7.0 incubation yielded a DH of 6.3, the pH 8.0 incubation a DH of 11.2 and the pH 9.0 incubation a DH of 16.4.

[3] = molecular target: T2, pepsin (Sus scrofa, UniProt P00791); assay: Lysozyme hydrolysis by pepsin (in vitro digestibility, DH); format: in vitro ADME; conditions: pH start 2.8, 2 hours at 37 degrees C
T2 construct: purchased Sigma
T2 sequence (P00791 60-385): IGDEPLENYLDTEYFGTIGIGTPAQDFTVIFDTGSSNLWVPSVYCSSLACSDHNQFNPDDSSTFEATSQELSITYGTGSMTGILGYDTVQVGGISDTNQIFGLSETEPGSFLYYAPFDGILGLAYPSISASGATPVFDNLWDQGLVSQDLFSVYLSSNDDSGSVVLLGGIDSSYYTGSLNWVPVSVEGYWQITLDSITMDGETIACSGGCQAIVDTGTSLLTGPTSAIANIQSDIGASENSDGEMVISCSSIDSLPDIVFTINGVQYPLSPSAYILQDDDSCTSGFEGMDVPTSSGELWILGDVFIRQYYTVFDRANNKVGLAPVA
Procedure: as §1

[4] = Kinetics of plasma Trp/LNAA ratio after hydrolysed, intact or mixed lysozyme (Example 11); format: in vivo, human; conditions: inferred from area-under-the-curve
Source text: Exclusion criteria were: chronic and current illness, at the discretion of the investigator; history of psychiatric disorders; use of selective serotonin reuptake inhibitors (SSRI); use of supplements targeting the central nervous system, such as supplements containing tryptophan, ephedrine, or St John's wort; egg allergy; drug abuse; participation in any other study involving investigational or marketed products concomitantly; intolerance to artificial sweeteners; any (history of) gastrointestinal disease that interferes with gastrointestinal function, at the discretion of the investigator; use of medication targeting the gastro-intestinal tract, such as antacids. Finally, for women, pregnancy or the use of a medically not accepted contraceptive method is an exclusion criterion as well. All subjects participating in the experiment signed an Informed Consent Form.
The study was performed according to a randomized, double-blind, crossover design with a washout period between the intake of the different treatments of three days at least.
The drinks were presented as sterile products in bottles with straws. […] A research assistant blind to the dietary conditions conducted the administration of the different drinks.
The subjects visited the site between 8 and 9 am, having fasted for at least 8 hours. A flexible cannula for blood drawings was inserted in their non-dominant forearm. […]

[5] = molecular target: T2, pepsin; assay: Test for protease resistancy (pepsin pH 4, SDS-PAGE); format: in vitro ADME; conditions: pepsin 1% w/w, 2 hours at 37 degrees C
Procedure: To test its digestibility in the human stomach, a 5% (w/w) solution of the intact protein was incubated with pepsin (Sigma; 1% w/w pepsin to intact protein) for 2 hours at 37 degrees C. in a Mc Ilvane buffer (0.2 M citric acid plus Na2HPO4) pH 4.0. The degree of protease resistancy is defined as the percentage of the protein that is not affected by the pepsin incubation. “Not affected” meaning that the molecular weight of the protein has not changed as a result of the pepsin incubation; “percentage of the protein” meaning the area under the curve after digestion times 100, divided by the area under the curve prior to digestion; “area under the curve” is the area of the protein having the initial molecular weight as provided by the quantitative analysis method used (see further).
Molecular weights are compared according to SDS-PAGE followed by staining according to the protocol specified hereunder. After staining of the gel, a digital image is prepared using the OptiGo imaging system (Isogen Life Science; www.isogen-life-science.com) followed by the quantitative analysis of selected protein bands using Totallab TL 100, version 2006 software (Nonlinear Dynamics Ltd; www.nonlinear.com) running under Windows XP.
All materials used for SDS-PAGE and staining were purchased from Invitrogen (Carlsbad, Calif., US). […] Staining was performed using Simply Blue Safe Stain (Collodial Coomassie G250).
Together with beta-lactoglobulin, alpha-lactalbumin forms the major protein constituent of whey. Because of its high Trp/LNAA ratio, isolated alpha-lactalbumin fractions as well as alpha-lactalbumin hydrolysates have gained popularity for enhancing plasma tryptophan levels. […] According to the present application, a pepsin-resistant molecule with a high Trp/LNAA ratio is essential to maintain high plasma Trp/LNAA ratios longer term. […] This was illustrated in the following experiment. […] After incubation both solutions were heated for 5 minutes at 80 degrees C. to terminate the reaction and small samples were subjected to SDS-PAGE (see Materials & Methods) to test the integrity of the various pepsin treated molecules.

[6] = set-up: species or system human; conditions: in vivo
Source text: The aim of the present study was to investigate in healthy volunteers plasma Trp/LNAA profiles and mood after the consumption of different tryptophan containing preparations.
Eighteen healthy students (9 males and 9 females: age between 18-30 years) participated in the study. Exclusion criteria for participation were chronic and current illness, history of psychiatric or medical illness, use of medication or drugs, alcohol consumption (>2 units/day), metabolic-, hormonal- or intestinal diseases and irregular diets or deviant eating habits (assessed by health and life-style questionnaires). Subjects participating in the experiment were in the normal range for the Body-Mass Index (BMI in kg/m^2 between 20-25) and female subjects are matched for contraception. Women participated during their mid-late follicular phase (day 4-10), while women using contraception participated when they actually used the contraception pill. […] All subjects participating in the experiment signed an Informed Consent Form. This study was conducted according to the EC principles of Good Clinical Practice (GCP) adopted by the 52nd WMA General Assembly, Edinburgh, Scotland, October 2000.
Subjects were instructed to fast overnight; only water or tea without sugar was permitted. During […] experimental morning sessions, subjects visited the laboratory to monitor plasma Trp/LNAA concentrations and mood following the intake of a drink containing different Trp or LNAA concentrations. The order of presentation of the various drinks was counterbalanced and the four experimental days were separated by a one-week period. On each experimental morning, a 312 ml drink was provided containing different tryptophan (Trp) or LNAA concentrations (Table 2). All drinks contained 0.10 g sweetener (acesulfame) and were filled up with plain water in order to reach 312 mL. A research assistant blind to the dietary conditions conducted the administration of the different drinks.
Blood samples were collected in duplicate before and 15, 30, 60, 90, 120, 180 and 210 minutes after ingestion in 5 ml vacutainer tubes containing sodium heparine and were then centrifuged at 5000 rpm for 5 min at 4° C. The resulting supernatants were mixed with sulfasalicyl acid (4 mg/100 microliter) and directly stored at −80° C. until analysis. Plasma amino acid analysis was conducted with HPLC, making use of a 2-3 μm Bischof Spherisorb ODS II column as described by van Eijk et al (J. Chromatogr. 1993: 620: 143-148). The plasma Trp/LNAA ratios were calculated by dividing the plasma molar tryptophan concentration by the sum of the plasma molar concentrations of the large neutral amino acids valine, isoleucine, leucine, tyrosine and phenylalanine. Statistical analysis took place by means of repeated measures multivariate and univariate analyses of variance (MANOVA and ANOVA) using the General Linear Model (GLM: SPSS 12.0 for Windows). All statistics were evaluated at a significance level of P=0.05.

[7] = earlier studies (Markus et al., 2000; Booij et al., 2006); cited from earlier work
[8] = system: healthy volunteers; assay: Profile of Mood States (POMS) after drinks with different tryptophan sources (Example 6); format: in vivo, human; conditions: for mood changes (POMS total mood scores): after the intake, over the session
Procedure: Subjects were instructed to fast overnight; only water or tea without sugar was permitted. During five experimental morning sessions, subjects visited the laboratory to monitor plasma Trp/LNAA concentrations and mood following the intake of a drink containing different Trp or LNAA concentrations. The order of presentation of the various drinks was counterbalanced and the four experimental days were separated by a one-week period. On each experimental morning, a 312 ml drink was provided containing different tryptophan (Trp) or LNAA concentrations (Table 2). All drinks contained 0.10 g sweetener (acesulfame) and were filled up with plain water in order to reach 312 mL. A research assistant blind to the dietary conditions conducted the administration of the different drinks.
The POMS comprises five different subscales for mood; ranging from Anger, Depression, Fatigue and Tension that refer to a negative mood state, to Vigor concerning a positive mood.

lysozyme: hen egg lysozyme (EC 3.2.1.17), intact protein, obtained as Delvozyme L or Delvozyme G from DSM Food Specialties
DH end (%) [1]: 1.3%
DH ([2]; pH 7.0, 3 hours at 60 degrees C): 6.3
DH ([2]; pH 8.0, 3 hours at 60 degrees C): 11.2
DH ([2]; pH 9.0, 3 hours at 60 degrees C): 16.4
DH end (%) [3]: 2.4%
digestion and uptake into the blood [4]: completely digested and taken up into the blood
protease resistant according to the test (more than 50% of protein with original molecular weight present) [5]: protease resistant
quantity of intact protein after incubation with pepsin (SDS-PAGE) [5]: not significantly diminished

ALAC: intact alpha-lactalbumin obtained as Biopure (>90% alpha-lactalbumin) from Davisco Foods; in Example 10 part of whey protein (Bipro)
increase in plasma Trp/LNAA ratio [6]: 67%
increases in plasma Trp/LNAA as previously found [7]: 50-70%
quantity of intact protein after incubation with pepsin (SDS-PAGE) [5]: almost completely degraded
protease resistant according to the test (more than 50% of protein with original molecular weight present) ([5]; listed as alpha-lactoglobulin): not “protease resistant”
protease resistant according to the test (more than 50% of protein with original molecular weight present) ([5]; listed as intact alpha-lactalbumine): not protease-resistant
mood changes (POMS total mood scores) [8]: no mood changes

beta-lactoglobulin: whey protein constituent of Bipro (Davisco), very low Trp/LNAA ratio (0.04)
protease resistant according to the test (more than 50% of protein with original molecular weight present) [5]: protease resistant
quantity of intact protein after incubation with pepsin (SDS-PAGE) [5]: remains largely intact

N[C@@H](Cc1c[nH]c2ccccc12)C(=O)O [TRP, L-tryptophan]
plasma Trp/LNAA ([6]; both, human, 0 min): 0.11
plasma Trp/LNAA ([6]; both, human, 30 min): 0.12
plasma Trp/LNAA ([6]; both, human, 60 min): 0.29
plasma Trp/LNAA ([6]; both, human, 90 min): 0.31
increase in plasma Trp/LNAA ratio ([6]; both, human, 120 min): 191%
plasma Trp/LNAA ([6]; both, human, 120 min): 0.32
plasma Trp/LNAA ([6]; both, human, 180 min): 0.24
plasma Trp/LNAA ([6]; both, human, 210 min): 0.20
mood (POMS total mood scores) ([8]; 60 min after the intake): Comparable improvements of mood

N[C@@H](CO)C(=O)N[C@@H](Cc1c[nH]c2ccccc12)C(=O)O [SYN, Ser-Trp] (H-Ser-Trp-OH)
increase in plasma Trp/LNAA ratio [6]: 263%
mood changes (POMS total mood scores) [8]: not significant
